Data from US20260209386A1 (MYTHIC THERAPEUTICS, published 2026).

B1: MYT11013 (antibody, V domains shown)
VH: EVQLVESGGGLVQPGGSLRLSCTASGFSLSSYAMGWVRQAPGKGLEWVGFINAGGNTYYANWAKGRFTISRDTSKNTVYLQMNSLRAEDTAVYFCARRYSRASGWYDLWGQGTLVTVSS
VL: EIVMTQSPSTLSASVGDRVIITCQASQSISSYLAWYQQKPGKAPKLLIYAASTLASGVPSRFSGSGSGAEFTLTISSLQPDDFATYYCQSYHYSSGIDYGDVFGQGTKLTVL
notes: MYT9359 LC variant; captured on anti-human Fc sensor
B2: MYT11014 (antibody, V domains shown)
VH: EVQLVESGGGLVQPGGSLRLSCTASGFSLSSYAMGWVRQAPGKGLEWVGFINAGGNTYYANWAKGRFTISRDTSKNTVYLQMNSLRAEDTAVYFCARRYSRASGWYDLWGQGTLVTVSS
VL: EIVMTQSPSTLSASVGDRVIITCQASQSISSYLAWYQQKPGKAPKLLIYAASTLASGVPSRFSGSGSGAEFTLTISSLQPDDFATYYCQSYSHSSGIDYGDVFGQGTKLTVL
notes: as for B1
B3: MYT11018 (antibody, V domains shown)
VH: EVQLVESGGGLVQPGGSLRLSCTASGFSLSSYAMGWVRQAPGKGLEWVGFINAGGNTYYANWAKGRFTISRDTSKNTVYLQMNSLRAEDTAVYFCARRYSRASGWYDLWGQGTLVTVSS
VL: EIVMTQSPSTLSASVGDRVIITCQASQSISSYLAWYQQKPGKAPKLLIYAASTLASGVPSRFSGSGSGAEFTLTISSLQPDDFATYYCQSYSYSSGHDYGDVFGQGTKLTVL
notes: as for B1
B4: MYT11021 (antibody, V domains shown)
VH: EVQLVESGGGLVQPGGSLRLSCTASGFSLSSYAMGWVRQAPGKGLEWVGFINAGGNTYYANWAKGRFTISRDTSKNTVYLQMNSLRAEDTAVYFCARRYSRASGWYDLWGQGTLVTVSS
VL: EIVMTQSPSTLSASVGDRVIITCQASQSISSYLAWYQQKPGKAPKLLIYAASTLASGVPSRFSGSGSGAEFTLTISSLQPDDFATYYCQSYSYSSGIDYHDVFGQGTKLTVL
notes: as for B1
B5: MYT11023 (antibody, V domains shown)
VH: EVQLVESGGGLVQPGGSLRLSCTASGFSLSSYAMGWVRQAPGKGLEWVGFINAGGNTYYANWAKGRFTISRDTSKNTVYLQMNSLRAEDTAVYFCARRYSRASGWYDLWGQGTLVTVSS
VL: EIVMTQSPSTLSASVGDRVIITCQASQSISSYLAWYQQKPGKAPKLLIYAASTLASGVPSRFSGSGSGAEFTLTISSLQPDDFATYYCQSYSYSSGIDYGDHFGQGTKLTVL
notes: as for B1
B6: MYT11025 (antibody, V domains shown)
VH: EVQLVESGGGLVQPGGSLRLSCTASGFSLSSYAMGWVRQAPGKGLEWVGFINAGGNTYYANWAKGRFTISRDTSKNTVYLQMNSLRAEDTAVYFCARRYSRASGWYDLWGQGTLVTVSS
VL: EIVMTQSPSTLSASVGDRVIITCQASQSISSYLAWYQQKPGKAPKLLIYAASTLASGVPSRFSGSGSGAEFTLTISSLQPDDFATYYCQSYSYSSGIAYGDVFGQGTKLTVL
notes: MYT9359 LC alanine variant; captured on anti-human Fc sensor
B7: MYT11026 (antibody, V domains shown)
VH: EVQLVESGGGLVQPGGSLRLSCTASGFSLSSYAMGWVRQAPGKGLEWVGFINAGGNTYYANWAKGRFTISRDTSKNTVYLQMNSLRAEDTAVYFCARRYSRASGWYDLWGQGTLVTVSS
VL: EIVMTQSPSTLSASVGDRVIITCQASQSISSYLAWYQQKPGKAPKLLIYAASTLASGVPSRFSGSGSGAEFTLTISSLQPDDFATYYCQSYSYSSGIDYGAVFGQGTKLTVL
notes: as for B6
B8: MYT10897 (antibody, V domains shown)
VH: EVQLVESGGGLVQPGGSLRLSCTASGFSLSNYVMNWVRQAPGKGLEWVGIIHSSGSTYYASWAKGRFTISRDTSKNTVYLQMNSLRAEDTAVYFCARGLYLWGQGTLVTVSS
VL: EIVMTQSPSTLSASVGDRVIITCQSSQSVYNNNLLAWYQQKPGKAPKLLIYYTSNLASGVPSRFSGSGSGAEFTLTISSLQPDDFATYYCQGGYNGNIYAFGQGTKLTVL
notes: MYT9345 variant, substitution at VH pos 52 (H2 03), no Ala mark
B9: MYT10888 (antibody, V domains shown)
VH: EVQLVESGGGLVQPGGSLRLSCTASGFSHSNYVMNWVRQAPGKGLEWVGIIDSSGSTYYASWAKGRFTISRDTSKNTVYLQMNSLRAEDTAVYFCARGLYLWGQGTLVTVSS
VL: EIVMTQSPSTLSASVGDRVIITCQSSQSVYNNNLLAWYQQKPGKAPKLLIYYTSNLASGVPSRFSGSGSGAEFTLTISSLQPDDFATYYCQGGYNGNIYAFGQGTKLTVL
notes: MYT9345 variant, His at VH pos 29 (H1 04)
B10: MYT10889 (antibody, V domains shown)
VH: EVQLVESGGGLVQPGGSLRLSCTASGFSLHNYVMNWVRQAPGKGLEWVGIIDSSGSTYYASWAKGRFTISRDTSKNTVYLQMNSLRAEDTAVYFCARGLYLWGQGTLVTVSS
VL: EIVMTQSPSTLSASVGDRVIITCQSSQSVYNNNLLAWYQQKPGKAPKLLIYYTSNLASGVPSRFSGSGSGAEFTLTISSLQPDDFATYYCQGGYNGNIYAFGQGTKLTVL
notes: MYT9345 variant, His at VH pos 30 (H1 05)
B11: MYT10891 (antibody, V domains shown)
VH: EVQLVESGGGLVQPGGSLRLSCTASGFSLSNHVMNWVRQAPGKGLEWVGIIDSSGSTYYASWAKGRFTISRDTSKNTVYLQMNSLRAEDTAVYFCARGLYLWGQGTLVTVSS
VL: EIVMTQSPSTLSASVGDRVIITCQSSQSVYNNNLLAWYQQKPGKAPKLLIYYTSNLASGVPSRFSGSGSGAEFTLTISSLQPDDFATYYCQGGYNGNIYAFGQGTKLTVL
notes: MYT9345 variant, His at VH pos 32 (H1 07)
B12: MYT10895 (antibody, V domains shown)
VH: EVQLVESGGGLVQPGGSLRLSCTASGFSLSNYVMNWVRQAPGKGLEWVGHIDSSGSTYYASWAKGRFTISRDTSKNTVYLQMNSLRAEDTAVYFCARGLYLWGQGTLVTVSS
VL: EIVMTQSPSTLSASVGDRVIITCQSSQSVYNNNLLAWYQQKPGKAPKLLIYYTSNLASGVPSRFSGSGSGAEFTLTISSLQPDDFATYYCQGGYNGNIYAFGQGTKLTVL
notes: MYT9345 variant, His at VH pos 50 (H2 01)
B13: MYT10896 (antibody, V domains shown)
VH: EVQLVESGGGLVQPGGSLRLSCTASGFSLSNYVMNWVRQAPGKGLEWVGIHDSSGSTYYASWAKGRFTISRDTSKNTVYLQMNSLRAEDTAVYFCARGLYLWGQGTLVTVSS
VL: EIVMTQSPSTLSASVGDRVIITCQSSQSVYNNNLLAWYQQKPGKAPKLLIYYTSNLASGVPSRFSGSGSGAEFTLTISSLQPDDFATYYCQGGYNGNIYAFGQGTKLTVL
notes: MYT9345 variant, His at VH pos 51 (H2 02)
B14: MYT10898 (antibody, V domains shown)
VH: EVQLVESGGGLVQPGGSLRLSCTASGFSLSNYVMNWVRQAPGKGLEWVGIIDHSGSTYYASWAKGRFTISRDTSKNTVYLQMNSLRAEDTAVYFCARGLYLWGQGTLVTVSS
VL: EIVMTQSPSTLSASVGDRVIITCQSSQSVYNNNLLAWYQQKPGKAPKLLIYYTSNLASGVPSRFSGSGSGAEFTLTISSLQPDDFATYYCQGGYNGNIYAFGQGTKLTVL
notes: MYT9345 variant, His at VH pos 53 (H2 04)
B15: MYT10903 (antibody, V domains shown)
VH: EVQLVESGGGLVQPGGSLRLSCTASGFSLSNYVMNWVRQAPGKGLEWVGIIDSSGSTHYASWAKGRFTISRDTSKNTVYLQMNSLRAEDTAVYFCARGLYLWGQGTLVTVSS
VL: EIVMTQSPSTLSASVGDRVIITCQSSQSVYNNNLLAWYQQKPGKAPKLLIYYTSNLASGVPSRFSGSGSGAEFTLTISSLQPDDFATYYCQGGYNGNIYAFGQGTKLTVL
notes: MYT9345 variant, His at VH pos 58 (H2 09)
B16: MYT10905 (antibody, V domains shown)
VH: EVQLVESGGGLVQPGGSLRLSCTASGFSLSNYVMNWVRQAPGKGLEWVGIIDSSGSTYYHSWAKGRFTISRDTSKNTVYLQMNSLRAEDTAVYFCARGLYLWGQGTLVTVSS
VL: EIVMTQSPSTLSASVGDRVIITCQSSQSVYNNNLLAWYQQKPGKAPKLLIYYTSNLASGVPSRFSGSGSGAEFTLTISSLQPDDFATYYCQGGYNGNIYAFGQGTKLTVL
notes: MYT9345 variant, His at VH pos 60 (H2 11)

The binders below were run against T1, Human PTK7 Protein, His Tag (Acro Biosystems) (human, UniProt Q13308 31-704) (assay: BLI (Octet), antibody on anti-human Fc sensor, 50 nM PTK7; 1 = pH dependent binding).
T1 construct: Bought His-tagged recombinant human PTK7; also called CCK4; Tyrosine-protein kinase-like 7
T1 sequence: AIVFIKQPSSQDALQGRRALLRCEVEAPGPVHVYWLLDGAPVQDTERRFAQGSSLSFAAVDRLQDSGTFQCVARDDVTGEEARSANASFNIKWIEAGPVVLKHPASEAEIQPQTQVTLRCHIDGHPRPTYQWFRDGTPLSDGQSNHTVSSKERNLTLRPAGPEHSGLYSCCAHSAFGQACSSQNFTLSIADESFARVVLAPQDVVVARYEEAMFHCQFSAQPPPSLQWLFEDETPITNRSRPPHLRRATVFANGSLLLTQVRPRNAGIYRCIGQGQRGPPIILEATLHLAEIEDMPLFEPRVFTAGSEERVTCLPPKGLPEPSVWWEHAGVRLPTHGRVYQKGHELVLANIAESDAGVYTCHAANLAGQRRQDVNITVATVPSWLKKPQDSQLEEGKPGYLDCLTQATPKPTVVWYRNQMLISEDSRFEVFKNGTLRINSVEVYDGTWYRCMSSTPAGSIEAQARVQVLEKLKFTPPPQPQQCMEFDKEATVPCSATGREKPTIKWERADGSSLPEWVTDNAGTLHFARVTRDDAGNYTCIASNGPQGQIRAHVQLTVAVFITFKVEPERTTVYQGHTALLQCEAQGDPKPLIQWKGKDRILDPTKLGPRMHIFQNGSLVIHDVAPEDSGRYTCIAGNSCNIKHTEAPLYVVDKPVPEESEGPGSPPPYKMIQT

Does B1 bind?
Result: binds

Does B2 bind?
Result: binds

Does B3 bind?
Result: binds

Does B4 bind?
Result: binds

Does B5 bind?
Result: binds

Does B6 bind?
Result: binds

Does B7 bind?
Result: binds

These binders were tested against T2, Human PTK7 Protein, His Tag, Acro Biosystems (human, UniProt Q13308 31-704) (assay: BLI (Octet), antibody on anti-human Fc sensor, 50 nM PTK7 at pH 7.4, dissociation at pH 7.4 or 5.4; 1 = pH dependent binding relative to parent).
T2 construct: Bought recombinant protein; also called CCK4; not shown: His tag
T2 sequence: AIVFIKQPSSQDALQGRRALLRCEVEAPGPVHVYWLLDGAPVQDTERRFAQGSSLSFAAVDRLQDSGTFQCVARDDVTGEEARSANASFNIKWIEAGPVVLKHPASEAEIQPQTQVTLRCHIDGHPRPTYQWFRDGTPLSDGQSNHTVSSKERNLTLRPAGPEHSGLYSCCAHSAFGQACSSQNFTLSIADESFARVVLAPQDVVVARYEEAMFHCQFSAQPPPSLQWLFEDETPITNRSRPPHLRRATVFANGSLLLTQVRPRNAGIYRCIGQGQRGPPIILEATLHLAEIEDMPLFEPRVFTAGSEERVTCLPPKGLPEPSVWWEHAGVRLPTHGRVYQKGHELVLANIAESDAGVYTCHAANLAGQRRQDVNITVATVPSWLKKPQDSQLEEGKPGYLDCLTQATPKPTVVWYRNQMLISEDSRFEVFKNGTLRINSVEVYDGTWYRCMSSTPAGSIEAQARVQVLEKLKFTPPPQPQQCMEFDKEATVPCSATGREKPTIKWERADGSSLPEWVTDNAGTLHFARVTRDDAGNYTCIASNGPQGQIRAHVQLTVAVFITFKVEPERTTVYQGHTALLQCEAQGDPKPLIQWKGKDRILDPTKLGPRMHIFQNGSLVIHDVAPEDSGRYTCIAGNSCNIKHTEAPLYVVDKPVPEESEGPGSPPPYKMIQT

Does B8 bind?
Result: binds

Does B9 bind?
Result: binds

Does B10 bind?
Result: binds

Does B11 bind?
Result: binds

Does B12 bind?
Result: binds

Does B13 bind?
Result: binds

Does B14 bind?
Result: binds

Does B15 bind?
Result: binds

Does B16 bind?
Result: binds
